Experimental data taken from paper PMC5435912.

Tests used:
[1] = target: CdiI^Ykris-His6, immunity protein of Yersinia kristensenii ATCC 33638 (Yersinia kristensenii ATCC 33638); test: BLI
[2] = target: bovine pancreatic RNase A, biotinylated (bovine) (UniProt P61823); test: BLI
Chain of UniProt P61823 (P61823 27-150): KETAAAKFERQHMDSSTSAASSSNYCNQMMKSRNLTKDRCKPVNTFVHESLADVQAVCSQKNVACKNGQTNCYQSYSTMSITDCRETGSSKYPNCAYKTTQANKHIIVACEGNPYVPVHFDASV

Row | Kd [2] [nM] | Substance | Kd [1] [nM]
1 | – | CdiA-CT^Ykris, C-terminal toxin region of CdiA from Yersinia kristensenii ATCC 33638 (domain or fragment) | 40.9
2 | 1950 | CdiI^Ykris-His6, immunity protein of Yersinia kristensenii ATCC 33638 (natural protein) | –
